Data on two molecules can be found in patent publication US20210361740A1.

The target in assay [1] is cMyc-tagged C-terminal TLR2 (cTLR2) recombinant protein, C-terminal TIR domain of TLR2 (640-784 amino acids) (UniProt Q9QUN7). Put plainly: thermal shift assay of cTLR2 with wtTIDM peptide.
Assay [2] has the same target. The experiment in a line: SPR, cTLR2 immobilised, peptide as analyte; equilibrium response versus peptide concentration; wtTIDM peptide.
Assay [3] shares this target. Put plainly: SPR, cTLR2 immobilised; reference mTIDM.
Assay [4] shares this target. Put plainly: SPR, cTLR2 immobilised, peptide as analyte; equilibrium response versus peptide concentration; mTIDM (mutated) peptide.
For assay [5] the target is unchanged. Put plainly: thermal shift assay of cTLR2 with mTIDM peptide.

cMyc-tagged C-terminal TLR2 (cTLR2) recombinant protein, C-terminal TIR domain of TLR2 (640-784 amino acids), sequence (Q9QUN7 640-784 limits assumed, form in doubt): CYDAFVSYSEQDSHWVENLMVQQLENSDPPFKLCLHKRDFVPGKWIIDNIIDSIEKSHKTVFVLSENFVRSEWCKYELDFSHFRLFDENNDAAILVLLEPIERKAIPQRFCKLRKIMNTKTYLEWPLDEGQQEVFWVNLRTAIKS

With DRQIKIWFQNRRMKWKKPGAHQK [Wild type (wt) TIDM peptide (TLR2-interacting domain of MyD88 joined to Antennapedia homeodomain)], the ΔTm (shift of melting temperature) in assay [1] worked out at 4.96 ° C. In addition, the Kd in assay [2] stood at 8 µM. In addition, the fold stronger affinity than mTIDM in assay [3] amounted to 2.5 fold.

With DRQIKIWFQNRRMKWKKPGWHQD [Mutated (m) TIDM peptide], the Kd in assay [4] was found to be 19 µM. The ΔTm (shift of melting temperature) in assay [5] came to 0.87 ° C.
